How the values were obtained:
Notch = assay: Heterologous reporter construct specificity test (Notch); format: cell-based; conditions: data not shown
Source text: (§1) Transfection of these Phylomers was not generally cytotoxic as assessed by cell viability using the Cell Titre Blue system (Promega) (data not shown). To initially assess their specificity for AP1 inhibition, we tested these hits against two heterologous reporter constructs designed to detect the activation of two distinct transcription factors, namely Notch and FOXO class Forkhead.

FOXO class Forkhead = assay: Heterologous reporter construct specificity test (FOXO class Forkhead); format: cell-based; conditions: data not shown
Source text: as §1

B1: 4G9: AP1-inhibitory Phylomer, SEQ ID NO: 6 (LKHRDYWVPL LYFFFVLITM ...), identified by phenotypic screening (protein)
chain: LKHRDYWVPLLYFFFVLITMFWDLYCHSGQYLYEARSLLPFYLFPFLIAALRIGDIVVDTRCRNVENLGGFERSAESSRYVQLSLYERQWFRLRYRAYGGNLRCLAGDLVENWRLWKEVNSKAAKDIDGAVMLRFFLPPRDLARLVTLLAALIAVIATLIITLAIV
modifications: Protein fragment of unknown organism
Notch
  Effect on Notch reporter construct: generally inhibited all reporter constructs
FOXO class Forkhead
  Effect on FOXO class Forkhead reporter construct: generally inhibited all reporter constructs
